Values joined by “and” are separate entries in the source; they are usually repeats but may differ in a detail not shown here. Equal values may be shown once. One block for each binder: values may come before it.
B6: PEX14 NTD (1-104) (domain or fragment, human, UniProt O75381 1-104, looked up)
chain: MASSEQAEQPSQPSSTPGSENVLPREPLIATAVKFLQNSRVRQSPLATRRAFLKKKGLTDEEIDMAFQQSGTAADEPSSLGPATQVVPVQPPHLISQPYSPAGS
notes: human PEX14, N-terminal domain, residues 1-104; also called PEX14 1-104; source: E. coli BL21 (DE3), purified (Ni-NTA, SUMO cleavage, reverse Ni-NTA, SEC); not shown: His6-SUMO, N-terminal, cleaved
B8: PEX14 NTD (1-104) (domain or fragment, human, UniProt O75381 1-104, looked up)
chain: MASSEQAEQPSQPSSTPGSENVLPREPLIATAVKFLQNSRVRQSPLATRRAFLKKKGLTDEEIDMAFQQSGTAADEPSSLGPATQVVPVQPPHLISQPYSPAGS
notes: human PEX14 (UniProtKB O75381), N-terminal domain, residues 1-104; also called PEX14 (1-104); source: E. coli BL21 (DE3), purified (Ni-NTA, SUMO cleavage, reverse Ni-NTA, SEC)
B14: PEX13 SH3 domain (residues 261-346) (domain or fragment, human, UniProt Q92968 261-346, looked up)
chain: VTDSINWASGEDDHVVARAEYDFAAVSEEEISFRAGDMLNLALKEQQPKVRGWLLASLDGQTTGLIPANYVKILGKRKGRKTVESS
notes: 15N-labelled in the NMR titrations, unlabelled in ITC; source: E. coli BL21 (DE3), purified (Ni-NTA, SUMO cleavage, reverse Ni-NTA, SEC); not shown: His6-SUMO, N-terminal, cleaved
B15: PEX13 SH3 domain (domain or fragment, human)
chain: VTDSINWASGEDDHVVARAEYDFAAVSEEEISFRAGDMLNLALKEQQPKVRGWLLASLDGQTTGLIPANYVKILGKRKGRKTVESS
notes: the SH3-CTR construct begins at 261 and the crystallised chimeras end the SH3 part at 346; source: E. coli BL21 (DE3), purified (Ni-NTA, SUMO cleavage, reverse Ni-NTA, SEC)

Legend:
Settings in all cases: both partners purified
PEX14 NTD (1-104) [1] = target: B8; assay: ITC; PEX14 (1-104) (20-60 uM, concentration corrected with the fit) in the cell, peptide or fragment in the syringe; 25 °C, 20 mM Tris pH 7.5, 50 mM NaCl; one-site binding model; single runs of triplicates and their averages
PEX13 SH3 domain = target: B15; assay: ITC; PEX13 SH3 (35-48 uM) in the cell, peptide or fragment in the syringe; 25 °C, 20 mM Tris pH 7.5, 50 mM NaCl; one-site binding model; single runs of triplicates and their averages
[2] = target: B14; assay: ITC; PEX13 SH3 (35-48 µM) in the cell, titrated with peptide; 25 °C; 20 mM Tris pH 7.5, 50 mM NaCl; one-site binding model; triplicates
PEX14 NTD (1-104) [3] = target: B6; assay: ITC; PEX14 NTD (1-104) (20-60 µM) in the cell, titrated with PEX5 W peptides or W0 (0.4-0.6 mM), PEX13 FxxxF (0.46 mM) or PEX13 SH3-CTR (1 mM); 25 °C; 20 mM Tris pH 7.5, 50 mM NaCl; one-site binding model; PEX14 concentration corrected with the fit; triplicates
[4] = target: T1, PEX13 SH3-CTR (residues 261-403) (human, UniProt Q92968 261-403); assay: NMR titration; 15N-labelled PEX13 construct (100 µM reference) with unlabelled ligand added; 1H,15N correlation spectra; 298 K; 20 mM Tris pH 7.5, 50 mM NaCl
T1 construct: 15N-labelled in the NMR titrations, unlabelled as ITC titrant; source: E. coli BL21 (DE3), purified (Ni-NTA, SUMO cleavage, reverse Ni-NTA, SEC); not shown: His6-SUMO, N-terminal, cleaved
T1 sequence (looked up): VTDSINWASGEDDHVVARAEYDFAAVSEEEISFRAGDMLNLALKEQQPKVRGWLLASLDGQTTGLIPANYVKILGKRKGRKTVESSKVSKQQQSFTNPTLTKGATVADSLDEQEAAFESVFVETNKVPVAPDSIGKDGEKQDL

[5] = target: B14; assay: as above
PEX5 W4 peptide [6] = target: T2, PEX5 W4 peptide (human); assay: ITC; PEX14 NTD (1-104) (20-60 µM) in the cell, titrated with PEX5 W peptides or W0 (0.4-0.6 mM), PEX13 FxxxF (0.46 mM) or PEX13 SH3-CTR (1 mM); 25 °C; 20 mM Tris pH 7.5, 50 mM NaCl; one-site binding model; PEX14 concentration corrected with the fit; triplicates
T2 construct: source: synthetic peptide, bought: PSL (Peptide Specialty Laboratories GmbH)

PEX5 W3 peptide [7] = target: T3, PEX5 W3 peptide (human); assay: as above
T3 construct: 15-mer with the W3 (di)aromatic motif of human PEX5; source: synthetic peptide, bought: PSL (Peptide Specialty Laboratories GmbH)

PEX5 W2 peptide [8] = target: T4, PEX5 W2 peptide (human); assay: as above
T4 construct: 15-mer with the W2 (di)aromatic motif of human PEX5; source: synthetic peptide, bought: PSL (Peptide Specialty Laboratories GmbH)

PEX5 W4 peptide [9] = target: T5, PEX5 W4 peptide (human); assay: ITC; PEX14 (1-104) at 20-60 µM titrated with PEX5 W peptides or W0 (0.4-0.6 mM), PEX13 FxxxF (0.46 mM) or PEX13 SH3-CTR (1 mM); 25 °C; 20 mM Tris pH 7.5, 50 mM NaCl; one-site model; PEX14 concentration corrected with the fit; triplicates
T5 construct: 15-mer with the W4 WxxxY motif of human PEX5 (R183, Y185, Y188 printed); also called PEX5 W4 motif; source: synthetic peptide, bought: PSL (Peptide Specialty Laboratories)

PEX5 W4 peptide [10] = target: T6, PEX5 W4 peptide (human); assay: ITC; PEX14 (1-104) (20-60 uM, concentration corrected with the fit) in the cell, peptide or fragment in the syringe; 25 °C, 20 mM Tris pH 7.5, 50 mM NaCl; one-site binding model; single runs of triplicates and their averages
T6 construct: 15-mer with the W4 WxxxY motif of human PEX5 (R183, Y185, Y188 are named in the text); source: synthetic peptide, bought: PSL (Peptide Specialty Laboratories)

PEX5 W3 peptide [11] = target: T7, PEX5 W3 peptide (human); assay: as above
T7 construct: 15-mer with the W3 WxxxY motif of human PEX5; source: synthetic peptide, bought: PSL (Peptide Specialty Laboratories)

PEX5 W2 peptide [12] = target: T8, PEX5 W2 peptide (human); assay: as above
T8 construct: 15-mer with the W2 WxxxF motif of human PEX5; source: synthetic peptide, bought: PSL (Peptide Specialty Laboratories)

PEX5 W4 peptide [13] = target: T2, PEX5 W4 peptide; assay: NMR titration; reduced (2 mM TCEP) 15N PEX13-CTR IA/CC with 4x and 8x PEX5 W4; 1H,15N correlation spectra
PEX5 W3 peptide [14] = target: T3, PEX5 W3 peptide; assay: ITC; PEX13 SH3 (35-48 µM) in the cell, titrated with peptide; 25 °C; 20 mM Tris pH 7.5, 50 mM NaCl; one-site binding model; triplicates
PEX5 W4 peptide [15] = target: T6, PEX5 W4 peptide; assay: ITC; PEX13 SH3 (35-48 uM) in the cell, peptide or fragment in the syringe; 25 °C, 20 mM Tris pH 7.5, 50 mM NaCl; one-site binding model; single runs of triplicates and their averages
PEX5 W3 peptide [16] = target: T7, PEX5 W3 peptide; assay: as above
PEX5 W2 peptide [17] = target: T8, PEX5 W2 peptide; assay: as above

Kd (PEX14 NTD (1-104) [1]): 3090 nM and 2230 nM and 3080 nM
stoichiometry N (PEX14 NTD (1-104) [1]): 1 sites
Kd (PEX13 SH3 domain): 21400 nM and 32400 nM and 27000 nM
stoichiometry N (PEX13 SH3 domain): 1 sites
B1: PEX13 FxxxF peptide (residues 350-403) (domain or fragment, human, UniProt Q92968 350-403, looked up)
chain: KQQQSFTNPTLTKGATVADSLDEQEAAFESVFVETNKVPVAPDSIGKDGEKQDL
notes: also called Pex13_FxF; source: E. coli BL21 (DE3), purified (Ni-NTA, SUMO cleavage, reverse Ni-NTA, SEC)

Kd [2]: 6400 nM
stoichiometry N [2]: 1
B3: PEX13 C-terminal peptide (351-403) with the FxxxF motif replaced by the PEX5 W4 motif (peptide)
chain: YGGQQQSFTNPTLTKGATVADSLDEQEAAWYDEYVETNKVPVAPDSIGKDGEKQDL
notes: three residues added before residue 351; also called FF/W4; source: E. coli BL21 (DE3), purified (Ni-NTA, SUMO cleavage, reverse Ni-NTA, SEC); not shown: His6-SUMO, N-terminal, cleaved

stoichiometry N (PEX14 NTD (1-104) [3]): 1
B4: PEX5 W6 peptide (peptide)
peptide: GTSDAWVDQFTRPVN
notes: 15-mer with the W6 (di)aromatic motif of human PEX5; source: synthetic peptide, bought: PSL (Peptide Specialty Laboratories GmbH)

binding result [4]: binds
binding result [5]: binds
B5: PEX13 PxxP peptide (49-61) (peptide, UniProt Q92968 49-61, looked up)
peptide: TRVPPPILPRPSQ

Kd (PEX5 W4 peptide [9]): 3140 nM
B7: PEX14 NTD (1-104) (domain or fragment, human, UniProt O75381 1-104, looked up)
chain: MASSEQAEQPSQPSSTPGSENVLPREPLIATAVKFLQNSRVRQSPLATRRAFLKKKGLTDEEIDMAFQQSGTAADEPSSLGPATQVVPVQPPHLISQPYSPAGS
notes: human PEX14 N-terminal domain, residues 1-104; also called PEX14 (1-104); source: E. coli BL21 (DE3), purified (Ni-NTA, SUMO cleavage, reverse Ni-NTA, SEC)

stoichiometry N (PEX14 NTD (1-104) [1]): 1 sites
B9: PEX5 W7 peptide (peptide)
peptide: AEAHPWLSDYDDLTS
notes: 15-mer with the W7 WxxxY motif of human PEX5; source: synthetic peptide, bought: PSL (Peptide Specialty Laboratories)

stoichiometry N (PEX14 NTD (1-104) [3]): 1
B11: PEX5 W7 peptide (peptide)
peptide: AEAHPWLSDYDDLTS
notes: 15-mer with the W7 (di)aromatic motif of human PEX5; source: synthetic peptide, bought: PSL (Peptide Specialty Laboratories GmbH)

binding result (PEX5 W4 peptide [13]): binds
B12: PEX13-CTR double cysteine mutant I333C/A376C (IA/CC) (domain or fragment, human, UniProt Q92968 261-403, looked up)
chain: VTDSINWASGEDDHVVARAEYDFAAVSEEEISFRAGDMLNLALKEQQPKVRGWLLASLDGQTTGLIPANYVKCLGKRKGRKTVESSKVSKQQQSFTNPTLTKGATVADSLDEQEACFESVFVETNKVPVAPDSIGKDGEKQDL
notes: the two states are told apart by the assay; 15N-labelled; also called PEX13 CTR IA/CC; PEX13-CTR IA/CC; source: E. coli BL21 (DE3), purified (Ni-NTA, SUMO cleavage, reverse Ni-NTA, SEC); not shown: His6-SUMO, N-terminal, cleaved

Kd (PEX14 NTD (1-104) [1]): 17.2 nM and 18.8 nM and 25.5 nM and 20.5 nM
stoichiometry N (PEX14 NTD (1-104) [1]): 1 sites
B16: PEX5 W5 peptide (peptide)
peptide: AQAEQWAAEFIQQQG
notes: 15-mer with the W5 WxxxF motif of human PEX5; source: synthetic peptide, bought: PSL (Peptide Specialty Laboratories)

stoichiometry N (PEX14 NTD (1-104) [1]): 1 sites
B18: PEX5 W6 peptide (peptide)
peptide: GTSDAWVDQFTRPVN
notes: 15-mer with the W6 WxxxF motif of human PEX5; source: synthetic peptide, bought: PSL (Peptide Specialty Laboratories)

Further lines, the binder ahead of its results:

B2: PEX13 C-terminal peptide (351-403) with WT FxxxF motif (peptide)
chain: YGGQQQSFTNPTLTKGATVADSLDEQEAAFESVFVETNKVPVAPDSIGKDGEKQDL
notes: three residues added before residue 351; main text and some legends say 350-403; also called PEX13 FxxxF; FxxxF peptide (350-403); source: E. coli BL21 (DE3), purified (Ni-NTA, SUMO cleavage, reverse Ni-NTA, SEC); not shown: His6-SUMO, N-terminal, cleaved
Kd [2]: 26900 nM
stoichiometry N [2]: 1

Binder: B6
Kd (PEX5 W4 peptide [6]): 3140 nM
Kd (PEX5 W3 peptide [7]): 136 nM
Kd (PEX5 W2 peptide [8]): 73.6 nM

Binder: B8
Kd (PEX5 W4 peptide [10]): 2510 nM and 3260 nM and 3640 nM and 3140 nM
Kd (PEX5 W3 peptide [11]): 188 nM and 97.5 nM and 124 nM and 136 nM
Kd (PEX5 W2 peptide [12]): 70.4 nM and 69.1 nM and 81.2 nM and 73.6 nM

B10: PEX5 W5 peptide (peptide)
peptide: AQAEQWAAEFIQQQG
notes: 15-mer with the W5 (di)aromatic motif of human PEX5; source: synthetic peptide, bought: PSL (Peptide Specialty Laboratories GmbH)
Kd (PEX14 NTD (1-104) [3]): 20.5 nM
stoichiometry N (PEX14 NTD (1-104) [3]): 1

B13: PEX5 W1 peptide (peptide)
peptide: ALSENWAQEFLAAGD
notes: 15-mer with the W1 WxxxF motif of human PEX5; source: synthetic peptide, bought: PSL (Peptide Specialty Laboratories)
Kd (PEX14 NTD (1-104) [1]): 75.1 nM and 62.6 nM and 79.1 nM and 72.3 nM
stoichiometry N (PEX14 NTD (1-104) [1]): 1 sites

Binder: B14
Kd (PEX5 W3 peptide [14]): 102000 nM

Binder: B15
Kd (PEX5 W4 peptide [15]): 44900 nM and 48500 nM and 36900 nM
Kd (PEX5 W3 peptide [16]): 112000 nM and 92300 nM
Kd (PEX5 W2 peptide [17]): 88800 nM and 86800 nM and 88600 nM

B17: PEX5 W1 peptide (peptide)
peptide: ALSENWAQEFLAAGD
notes: 15-mer with the W1 (di)aromatic motif of human PEX5; source: synthetic peptide, bought: PSL (Peptide Specialty Laboratories GmbH)
Kd (PEX14 NTD (1-104) [3]): 72.3 nM
stoichiometry N (PEX14 NTD (1-104) [3]): 1

Source: article PMC11024197 (Nature Communications, 2024)
